Experimental data taken from patent US20190127457A1 (Hoffmann-La Roche, published 2019).

Molecular target: T1, human neonatal Fc-receptor (FcRn) (human, UniProt P55899 24-297; P61769 21-119)
T1 construct: also called human FcRn; huFcRn
Test: symmetric HHY-AAA mutation

T1 sequence (P55899 24-297 limits assumed, chain 1 of 2): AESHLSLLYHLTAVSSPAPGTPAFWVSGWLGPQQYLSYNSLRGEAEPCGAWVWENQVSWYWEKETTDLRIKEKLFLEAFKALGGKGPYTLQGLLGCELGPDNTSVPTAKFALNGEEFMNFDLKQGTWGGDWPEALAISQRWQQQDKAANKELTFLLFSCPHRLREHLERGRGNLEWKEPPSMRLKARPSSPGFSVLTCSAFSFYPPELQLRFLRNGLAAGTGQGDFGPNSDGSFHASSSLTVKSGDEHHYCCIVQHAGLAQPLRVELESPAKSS
T1 sequence (P61769 21-119 limits assumed, chain 2 of 2): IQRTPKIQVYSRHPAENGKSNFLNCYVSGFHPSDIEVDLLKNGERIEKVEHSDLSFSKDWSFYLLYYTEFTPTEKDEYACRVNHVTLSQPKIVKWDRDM

B1: IGF-1R 0045 (antibody, human IgG1, kappa)
light: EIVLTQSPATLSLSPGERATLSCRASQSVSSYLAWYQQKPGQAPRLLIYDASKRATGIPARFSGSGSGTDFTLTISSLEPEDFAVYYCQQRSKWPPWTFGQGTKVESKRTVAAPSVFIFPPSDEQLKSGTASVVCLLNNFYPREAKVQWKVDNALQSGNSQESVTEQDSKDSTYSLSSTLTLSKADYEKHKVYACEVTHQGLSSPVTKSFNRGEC
heavy: QVELVESGGGVVQPGRSQRLSCAASGFTFSSYGMHWVRQAPGKGLEWVAIIWFDGSSTYYADSVRGRFTISRDNSKNTLYLQMNSLRAEDTAVYFCARELGRRYFDLWGRGTLVSVSSASTKGPSVFPLAPSSKSTSGGTAALGCLVKDYFPEPVTVSWNSGALTSGVHTFPAVLQSSGLYSLSSVVTVPSSSLGTQTYICNVNHKPSNTKVDKKVEPKSCDKTHTCPPCPAPELLGGPSVFLFPPKPKDTLMISRTPEVTCVVVDVSHEDPEVKFNWYVDGVEVHNAKTKPREEQYNSTYRVVSVLTVLAQDWLNGKEYKCKVSNKALPAPIEKTISKAKGQPREPQVYTLPPSRDELTKNQVSLTCLVKGFYPSDIAVEWESNGQPENNYKTTPPVLDSDGSFFLYSKLTVDKSRWQQGNVFSCSVMHEALANHATQKSLSLSPG
notes: Roles inferred; also called <IGF-1R> IgG1 with H310A, H433A, Y436A; anti-IGF-1R IgG1 with HHY-AAA mutation
  binding result: no binding
